Measurements as given in paper PMC5389554.

B1: 26-nt-AAATTAGT (dsDNA)
DNA 1: TGTAAACAGAAATTAGTATCTCTGCC
DNA 2: GGCAGAGATACTAATTTCTGTTTACA
B2: AAATTAGT probe (il-12b, ccl5, cnbp) (dsDNA)
DNA 1: AAATTAGT
DNA 2: ACTAATTT
B3: Mut.3 (dsDNA)
DNA 1: AGTTGCCA
DNA 2: TGGCAACT
B4: Mut.6 (dsDNA)
DNA 1: CTGGGGGA
DNA 2: TCCCCCAG
B5: CTGAAAAA probe (il-6, il-1b, ccl9, cnbp) (dsDNA)
DNA 1: CTGAAAAA
DNA 2: TTTTTCAG
B6: AAATTAGA probe (il-6, ccl4) (dsDNA)
DNA 1: AAATTAGA
DNA 2: TCTAATTT
B7: 26-nt-CTGAAAAA (dsDNA)
DNA 1: GGAACTAGTCTGAAAAAGAAACTAAC
DNA 2: GTTAGTTTCTTTTTCAGACTAGTTCC
B8: AGTTGAGA probe (ccl4) (dsDNA)
DNA 1: AGTTGAGA
DNA 2: TCTCAACT
B9: NF-κB probe (dsDNA)
DNA 1: AATGTGGGATTTTCCCATGA
DNA 2: TCATGGGAAAATCCCACATT
B10: Mut.2 (dsDNA)
DNA 1: AGTGGAGA
DNA 2: TCTCCACT
B11: Mut.5 (dsDNA)
DNA 1: GGGAAAAA
DNA 2: TTTTTCCC

Target: T1, GST-CNBP (isoform 1, WT) (mouse, UniProt P53996 1-178)
Assay: EMSA

T1 sequence (P53996 whole entry, canonical isoform): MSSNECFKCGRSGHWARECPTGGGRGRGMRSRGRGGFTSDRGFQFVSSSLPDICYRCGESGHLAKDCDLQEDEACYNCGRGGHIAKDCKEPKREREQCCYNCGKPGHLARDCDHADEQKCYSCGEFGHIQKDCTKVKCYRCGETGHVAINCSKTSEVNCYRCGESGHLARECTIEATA

Binder | binding result
B1 | binds
GGAGGAGAGAGAGAGAGAGAGAGAGA (mixed) [G-rich 26-nt (strandedness in assay not stated; antisense S140 also listed)] | binds
B2 | binds
B3 | no binding
B4 | no binding
B5 | binds
B6 | binds
B7 | binds
B8 | binds
B9 | no binding

Target: GST-CNBP Δ54-178 (CNBP-1-53) (mouse, UniProt P53996 1-53, del54-178)
Assay: EMSA

GST-CNBP Δ54-178 (CNBP-1-53), sequence (P53996 1-53, stated change not applied): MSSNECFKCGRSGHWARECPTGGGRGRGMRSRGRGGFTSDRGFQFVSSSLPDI

Binder | binding result
B5 | binds

Target: T1, GST-CNBP (isoform 1, WT)
Assay: EMSA
Remark: another data set of the same source

Binder | binding signal
B10 | > 1 fold of AGTTGAGA

Target: T1, GST-CNBP (isoform 1, WT)
Assay: EMSA
Remark: another data set of the same source

Binder | binding signal
B11 | > 1 fold of CTGAAAAA
